Measurements: the RNAGym collection of RNA variant scans (doi:10.7554/elife.80360)

B1: CPEB3 Ribozyme (parent)
chain: GGGGGCCACAGCAGAAGCGUUCACGUCGCGGCCCCUGUCAGAUUCUGGUGAAUCUGCGAAUUCUGCUGU

Variants of: B1
Assay: self-cleavage, relative activity (ratio to wild type); higher = more cleavage; co-transcriptional

Compared with GGGGGCCACAGCAGAAGCGUUCACGUCGCGGCCCCUGUCAGAUUCUGGUGCAUCUGCGACUUCUGCUGU [A51C A60C], GGGGGCCACAGCAGAAGCGUUCACGUCGCGGCCCCUGUCAGAUUCUGGUCAAACUGCGAAUUCUGCUGU [G50C U53A] is higher in self-cleavage: 0.477 for the first, 0.899 for the second.

First: GGGGGCCACAGCAGAAGCGUUCACGUCGCGGCCCCUGUCAGAUUCUGGUGCAUCUGCGAAUUCUGCCGU [A51C U67C]
Second: GGGGGCCACAGCAGAAGCGUUCACGUCGCGGCCCCUGUCAGAUUCUGGUGCAUCUGCGAAUUCUUCUGU [A51C G65U]
The self-cleavage of the first is higher: 0.943 for the first, 0.729 for the second.

Compared with GGGGGCCACAGCAGAAGCGUUCACGUCGCGGCCCCUGUCAGAUUCUGGUCAAUCUGCAAAUUCUGCUGU [G50C G58A], GGGGGCCACAGCAGAAGCGUUCACGUCGCGGCCCCUGUCAGAUUCUGGUGGAUCUGCGAACUCUGCUGU [A51G U61C] is lower in self-cleavage: 0.935 for the first, 0.777 for the second.

Compared with GGGGGCCACAGCAGAAGCGUUCACGUCGCGGCCCCUGUCAGAUUCUGGUUAAUCGGCGAAUUCUGCUGU [G50U U55G], GGGGGCCACAGCAGAAGCGUUCACGUCGCGGCCCCUGUCAGAUUCUGGUUAAUCAGCGAAUUCUGCUGU [G50U U55A] is higher in self-cleavage: 0.8 for the first, 0.882 for the second.

First: GGGGGCCACAGCAGAAGCGUUCACGUCGCGGCCCCUGUCAGAUUCUGGUGCAUCUGCGAAUGCUGCUGU [A51C U62G]
Second: GGGGGCCACAGCAGAAGCGUUCACGUCGCGGCCCCUGUCAGAUUCUGGUUAAUGUGCGAAUUCUGCUGU [G50U C54G]
The self-cleavage of the first is lower: 0.778 for the first, 0.781 for the second.

Going from GGGGGCCACAGCAGAAGCGUUCACGUCGCGGCCCCUGUCAGAUUCUGGUGCAUCGGCGAAUUCUGCUGU [A51C U55G] to GGGGGCCACAGCAGAAGCGUUCACGUCGCGGCCCCUGUCAGAUUCUGGUGCAUCCGCGAAUUCUGCUGU [A51C U55C], the self-cleavage rises from 0.576 to 0.678.

Going from GGGGGCCACAGCAGAAGCGUUCACGUCGCGGCCCCUGUCAGAUUCUGGUGCAUCUCCGAAUUCUGCUGU [A51C G56C] to GGGGGCCACAGCAGAAGCGUUCACGUCGCGGCCCCUGUCAGAUUCUGGUAAAUCGGCGAAUUCUGCUGU [G50A U55G], the self-cleavage rises from 0.57 to 0.858.

First: GGGGGCCACAGCAGAAGCGUUCACGUCGCGGCCCCUGUCAGAUUCUGGUUAAUCUGCCAAUUCUGCUGU [G50U G58C]
Second: GGGGGCCACAGCAGAAGCGUUCACGUCGCGGCCCCUGUCAGAUUCUGGUGUUUCUGCGAAUUCUGCUGU [A51U A52U]
The self-cleavage of the first is lower: 0.942 for the first, 0.96 for the second.

First: GGGGGCCACAGCAGAAGCGUUCACGUCGCGGCCCCUGUCAGAUUCUGGUAAAUCUGCGAAUUCUGCUGA [G50A U69A]
Second: GGGGGCCACAGCAGAAGCGUUCACGUCGCGGCCCCUGUCAGAUUCUGGUGCAGCUGCGAAUUCUGCUGU [A51C U53G]
The self-cleavage of the first is higher: 0.982 for the first, 0.703 for the second.

Going from GGGGGCCACAGCAGAAGCGUUCACGUCGCGGCCCCUGUCAGAUUCUGGUUAAUCUGCGAAUUCUGCUGU [G50U] to GGGGGCCACAGCAGAAGCGUUCACGUCGCGGCCCCUGUCAGAUUCUGGUCAAUCUGCGAAUUCUGCUGU [G50C], the self-cleavage falls from 0.997 to 0.996.

Compared with GGGGGCCACAGCAGAAGCGUUCACGUCGCGGCCCCUGUCAGAUUCUGGUAAAUCUGCGAAGUCUGCUGU [G50A U61G], GGGGGCCACAGCAGAAGCGUUCACGUCGCGGCCCCUGUCAGAUUCUGGUAAAUCUGCGAAUUCUGCCGU [G50A U67C] is higher in self-cleavage: 0.876 for the first, 1.01 for the second.

Going from GGGGGCCACAGCAGAAGCGUUCACGUCGCGGCCCCUGUCAGAUUCUGGUAAAUCUGCGAAUUCUGCGGU [G50A U67G] to GGGGGCCACAGCAGAAGCGUUCACGUCGCGGCCCCUGUCAGAUUCUGGUGGAUCUGCGACUUCUGCUGU [A51G A60C], the self-cleavage falls from 1.02 to 0.373.

Going from GGGGGCCACAGCAGAAGCGUUCACGUCGCGGCCCCUGUCAGAUUCUGGUUAAUCUGCGAAUUCUGGUGU [G50U C66G] to GGGGGCCACAGCAGAAGCGUUCACGUCGCGGCCCCUGUCAGAUUCUGGUUAAUCUGCGAAUUCUGAUGU [G50U C66A], the self-cleavage falls from 0.923 to 0.824.

First: GGGGGCCACAGCAGAAGCGUUCACGUCGCGGCCCCUGUCAGAUUCUGGUUAAUCUGCGAAUUCUGUUGU [G50U C66U]
Second: GGGGGCCACAGCAGAAGCGUUCACGUCGCGGCCCCUGUCAGAUUCUGGUGCAUCUGCGAAUUGUGCUGU [A51C C63G]
The self-cleavage of the first is higher: 1.01 for the first, 0.699 for the second.

First: GGGGGCCACAGCAGAAGCGUUCACGUCGCGGCCCCUGUCAGAUUCUGGUGCAUCUGGGAAUUCUGCUGU [A51C C57G]
Second: GGGGGCCACAGCAGAAGCGUUCACGUCGCGGCCCCUGUCAGAUUCUGGUGUAUCUGCGGAUUCUGCUGU [A51U A59G]
The self-cleavage of the first is lower: 0.38 for the first, 0.993 for the second.

Compared with GGGGGCCACAGCAGAAGCGUUCACGUCGCGGCCCCUGUCAGAUUCUGGUUAAUCUGCGAAUUCUGCUUU [G50U G68U], GGGGGCCACAGCAGAAGCGUUCACGUCGCGGCCCCUGUCAGAUUCUGGUCAAUCUGCGAAUUCUUCUGU [G50C G65U] is lower in self-cleavage: 1.02 for the first, 0.774 for the second.

Going from GGGGGCCACAGCAGAAGCGUUCACGUCGCGGCCCCUGUCAGAUUCUGGUGCAUCUGCGAAGUCUGCUGU [A51C U61G] to GGGGGCCACAGCAGAAGCGUUCACGUCGCGGCCCCUGUCAGAUUCUGGUGCAUCUGCGAACUCUGCUGU [A51C U61C], the self-cleavage rises from 0.551 to 0.796.

Compared with GGGGGCCACAGCAGAAGCGUUCACGUCGCGGCCCCUGUCAGAUUCUGGUUAAUCUGCGCAUUCUGCUGU [G50U A59C], GGGGGCCACAGCAGAAGCGUUCACGUCGCGGCCCCUGUCAGAUUCUGGUCAAUAUGCGAAUUCUGCUGU [G50C C54A] is lower in self-cleavage: 0.682 for the first, 0.53 for the second.

Going from GGGGGCCACAGCAGAAGCGUUCACGUCGCGGCCCCUGUCAGAUUCUGGUUCAUCUGCGAAUUCUGCUGU [G50U A51C] to GGGGGCCACAGCAGAAGCGUUCACGUCGCGGCCCCUGUCAGAUUCUGGUCGAUCUGCGAAUUCUGCUGU [G50C A51G], the self-cleavage rises from 0.938 to 0.982.

GGGGGCCACAGCAGAAGCGUUCACGUCGCGGCCCCUGUCAGAUUCUGGUCCAUCUGCGAAUUCUGCUGU [G50C A51C] gave a self-cleavage of 0.876.
